# Assay results reported in patent US7105327.
# B1: recombinant streptokinase from Streptococcus equisimilis (ATCC 9542) (protein)
# chain: IAGPEWLLDRPSVNNSQLVVSVAGTVEGTNQDISLKFFEIDLTSRPAHGGKTEQGLSPKSKPFATDSGAMSHKLEKADLLKAIQEQLIANVHSNDDYFEVIDFASDATITDRNGKVYFADKDGSVTLPTQPVQEFLLSGHVRVRPYKEKPIQNQAKSVDVEYTVQFTPLNPDDDFRPGLKDTKLLKTLAIGDTITSQELLAQAQSILNKNHPGYTIYERDSSIVTHDNDIFRTILPMDQEFTYRVKNREQAYRINKKSGLNEEINNTDLISEKYYVLKKGEKPYDPFDRSHLKLFTIKYVDVDTNELLKSEQLLTASERNLDFRDLYDPRDKAKLLYNNLDAFGIMDYTLTGKVEDNHDDTNRIITVYMGKRPEGENASYHLAYDKDRYTEEEREVYSYLRYTGTPIPDNPNDK
# Biological target: plasminogen
# Sequence (P00747 20-810): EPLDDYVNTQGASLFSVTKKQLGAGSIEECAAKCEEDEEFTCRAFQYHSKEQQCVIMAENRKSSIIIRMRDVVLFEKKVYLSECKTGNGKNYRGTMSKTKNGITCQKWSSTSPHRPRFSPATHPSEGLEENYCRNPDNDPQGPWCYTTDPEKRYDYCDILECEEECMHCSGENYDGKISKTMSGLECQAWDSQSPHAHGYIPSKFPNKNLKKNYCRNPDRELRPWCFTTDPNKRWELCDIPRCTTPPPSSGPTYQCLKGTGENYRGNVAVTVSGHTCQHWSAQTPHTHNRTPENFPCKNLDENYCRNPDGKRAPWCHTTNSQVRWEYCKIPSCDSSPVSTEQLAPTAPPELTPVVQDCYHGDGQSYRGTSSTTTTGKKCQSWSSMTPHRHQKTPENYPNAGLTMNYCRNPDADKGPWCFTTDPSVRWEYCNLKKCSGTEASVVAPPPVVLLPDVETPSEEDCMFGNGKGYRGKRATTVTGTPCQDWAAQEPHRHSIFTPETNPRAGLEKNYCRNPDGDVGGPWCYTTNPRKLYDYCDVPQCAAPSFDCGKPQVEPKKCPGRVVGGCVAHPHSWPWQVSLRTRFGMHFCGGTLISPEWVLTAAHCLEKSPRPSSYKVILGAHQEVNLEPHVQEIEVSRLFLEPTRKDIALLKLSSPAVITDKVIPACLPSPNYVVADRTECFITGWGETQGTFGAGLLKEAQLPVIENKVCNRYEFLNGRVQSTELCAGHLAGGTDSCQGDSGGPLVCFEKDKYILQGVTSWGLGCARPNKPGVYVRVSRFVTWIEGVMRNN
protein,measurement,value
B1,"activity in two-stage plasminogen activation assay (plasmin assayed with H-D-Val-Leu-Lys-p-nitroanilide, A405)","97,500+/-2500 IU/mg protein"
